In patent US11612662B2, “Multi-arm polymeric prodrug conjugates of pemetrexed-based compounds” (priority 2010, dated 2023):

Tests used:
[1] = in vivo; conditions: for Days of Deaths (s = surviving at study end): five mice listed singly; for % Rx Related Deaths / Day of Max. Mean Body Weight Loss (body weight nadir): once each day for ten days; for MTD at 10 days: female, SCID (HsdIcr:Ha (ICR)-Prkdc-scid), iv
Description: The purpose of this study was to determine the maximum tolerated dose for pemetrexed (PMX), Compound 20a (from Example 1), Compound 20b (from Example 1), Compound 20c (from Example 1), and Compound 20d (from Example 1) in female SCID mice fed a low folate diet. All compounds were administered intravenously, once each day, for ten consecutive days.
Calculations were made to provide “dose equivalents” between PMX, Compound 20a, Compound 20b, Compound 20c and Compound 20d, which “dose equivalents” along with the “actual dose” administered are provided in Table 2. All dosagese in this example are expressed in terms of “dose equivalents” and adjustments were made for excipients, salts and hydration state.
Female SCID mice (HsdIcr:Ha (ICR)-Prkdc-scid) were obtained from Harlan. They were seven weeks old on Day 1 of the experiment. The mice in Groups 1 and 2 were fed irradiated Rodent Diet 5053 (LabDiet™). The mice in Groups 3 through 19 were fed irradiated Folic Acid Deficient Purina TestDiet supplemented with 1% succinylsufathiazol from 14 days prior to dosing until 14 days after dosing was completed, at which time the study was terminated and the mice were then euthanized. All groups received drinking water ad libitum. Mice were housed in static cages in clean rooms that provide H.E.P.A filtered air into the environment at 100 complete air changes per hour. All treatments, body weight determinations, and tumor measurements were carried out in the environment. The environment was controlled to a temperature range of 70°±2° F. and a humidity range of 30-70%. […] Mice found in obvious distress or in a moribund condition were euthanized. The study was carried out in an AAALAC accredited facility.
Treatments began on Day 1. […] Mice in Groups 3 through 19 were fed irradiated Folic Acid Deficient Purina TestDiet with 1% Succinylsufathiazol for 14 days prior to dosing as well as throughout the entire experiment. All mice were dosed according to individual body weight on the day of treatment (0.2 ml/20 g).
Mice were weighed on each day of treatment and at least three times weekly thereafter. Individual body weights were recorded three times weekly. […] In this report, a dosage level is described as tolerated if treatment-related weight loss (during and two weeks after treatment) is <20%. Upon death or euthanasia, all mice were necropsied to provide a general assessment of potential cause of death and perhaps target organs for toxicity.

[2] = Single dose maximum tolerated dose study; type: in vivo, mice; conditions: single intravenous dose
Description: Because of too much efficacy of daily dosing for ten days in a pilot xenograft study (likely due to the effects of repeated dosing), a single dose maximum tolerated dose study was conducted using a method similar to that provided in Example 3 in order to have a better dosing schedule for a comparative xenograft study.

[3] = system: xenograft; assay: In vivo xenograft study; design: species or system female athymic nu/nu mice; conditions: as of day 26; intravenously, at 80% and at 50% of the single dose maximum tolerated dose
Description: Briefly, for run of the experiment, a previously untreated group of 8-12 week old mice was intravenously administered a test article prepared in saline and diluted to appropriate concentrations to allow administration volumes of a maximum of 20 mL/kg. Each compound of interest was tested twice: once at 80% of the maximum tolerated dose and once at 50% of the maximum tolerated (maximum tolerated doses calculated on the single dose maximum tolerated dose study).
Mice were observed daily for clinical signs and body weights were recorded daily (except on weekend days) then biweekly until the end of study. Dosing was terminated for any group in which mean weight loss exceeded 20% or >10% of animals died. Moribund animals were euthanized.

[4] = in vivo; cited from earlier work
[5] = low folate diet, 1 mg/kg/inj dose equivalents
[6] = low folate diet, 1 mg/kg, tolerated if treatment-related weight loss <20%
[7] = low folate diet, 3.75 mg/kg/inj dose equivalents
[8] = low folate diet, 3.75 mg/kg, tolerated if treatment-related weight loss <20%
[9] = low folate diet, 15 mg/kg, tolerated if treatment-related weight loss <20%
[10] = low folate diet, dosage levels found tolerated
[11] = low folate diet, dosage levels found toxic
[12] = low folate diet, intravenously once each day for ten days, 1 mg/kg/inj dose equivalents
[13] = low folate diet, intravenously once each day for ten days, 3.75 mg/kg/inj dose equivalents
[14] = low folate diet, intravenously once each day for ten days, 15 mg/kg/inj dose equivalents
[15] = low folate diet, 15 mg/kg/inj dose equivalents
[16] = low folate diet, 60 mg/kg/inj dose equivalents

For “4-arm-PEG30k-γ-amide-Pemetrexed Conjugate [Compound 20c]”, the “maximum treatment-related body weight loss” value ([1]; low folate diet, 1 mg/kg) was 4.8%, the “time to recover lost body weight” value ([1]; low folate diet, 1 mg/kg) was 5.5 days and the “Days of Deaths (s = surviving at study end)” value (from here on “Days of Deaths”) [1, 5] was “s, s, s, s, s”. The “tolerability of the dosage level” value [1, 6] was “tolerated”, the “maximum treatment-related body weight loss” value ([1]; low folate diet, 3.75 mg/kg) was 1.4% and the “time to recover lost body weight” value ([1]; low folate diet, 3.75 mg/kg) was 2.2 days. For the same compound, the “Days of Deaths” value [1, 7] was “s, s, s, s, s”, the “tolerability of the dosage level” value [1, 8] was “tolerated” and the “maximum treatment-related body weight loss” value ([1]; low folate diet, 15 mg/kg) was 18.8%. The “time to recover lost body weight” value ([1]; low folate diet, 15 mg/kg) was “not recovered prior to study termination”, the “tolerability of the dosage level” value [1, 9] was “toxic” and the common clinical signs [1, 10] was “Rough pelage”. The necropsy findings [1, 10] was “no significant findings”, the necropsy findings [1, 11] was “Necrotic intestines” and the “Max. Mean Body Weight change during Rx (%)” value [1, 12] was −4.8%. For the same compound, the “Max. Mean Body Weight change during Rx (%)” value [1, 13] was −1.4%, the “Max. Mean Body Weight change during Rx (%)” value [1, 14] was −22.0% and the “% Rx Related Deaths” value [1, 5] was 0%. For the same compound, the “Day of Max. Mean Body Weight Loss (body weight nadir)” value (shortened to “Day of Max. Mean Body Weight Loss”) [1, 5] was 10, the “% Rx Related Deaths” value [1, 7] was 0% and the “Day of Max. Mean Body Weight Loss” value [1, 7] was 5. The “% Rx Related Deaths” value [1, 15] was 20%, the “Day of Max. Mean Body Weight Loss” value ([1]; low folate diet, 15 mg/kg/inj dose equivalents, 15 mg/kg) was 19 and the “Single dose MTD” value ([2]; dose equivalents) was <40. The “BWL (body weight loss)” value ([2]; tested dose (equiv) 40) was −19.6%, the “day (of body weight loss)” value ([2]; tested dose (equiv) 40) was 9 and the “mean day of death” value ([2]; tested dose (equiv) 40) was 12. The treatment-related deaths ([2]; tested dose (equiv) 40) was 5, the “BWL (body weight loss)” value ([2]; tested dose (equiv) 70) was −25.0% and the “day (of body weight loss)” value ([2]; tested dose (equiv) 70) was 9. The “mean day of death” value ([2]; tested dose (equiv) 70) was 10.5, the treatment-related deaths ([2]; tested dose (equiv) 70) was 2 and the “BWL (body weight loss)” value ([2]; tested dose (equiv) 95) was −27.1%. For the same compound, the “day (of body weight loss)” value ([2]; tested dose (equiv) 95) was 7, the “mean day of death” value ([2]; tested dose (equiv) 95) was 9 and the treatment-related deaths ([2]; tested dose (equiv) 95) was 3. For the same compound, the “BWL (body weight loss)” value ([2]; tested dose (equiv) 125) was −25.3%, the “day (of body weight loss)” value ([2]; tested dose (equiv) 125) was 9 and the “mean day of death” value ([2]; tested dose (equiv) 125) was 10.5. The treatment-related deaths ([2]; tested dose (equiv) 125) was 2, the “tumor volume compared with saline control” value [3] was “significantly less tumor volume than saline control” and the “tumor volume compared with the other articles tested” value [3] was “lowest tumor volumes of all articles tested”.
With “4-arm-PEG40k-γ-amide-Pemetrexed Conjugate [Compound 20d]” the “maximum treatment-related body weight loss” value ([1]; low folate diet, 1 mg/kg) was 0.9%, the “time to recover lost body weight” value ([1]; low folate diet, 1 mg/kg) was 0.8 days and the “Days of Deaths” value [1, 5] was “s, s, s, s, s”. For the same compound, the “tolerability of the dosage level” value [1, 6] was “tolerated”, the “maximum treatment-related body weight loss” value ([1]; low folate diet, 3.75 mg/kg) was 4.5% and the “time to recover lost body weight” value ([1]; low folate diet, 3.75 mg/kg) was 11.3 days. For the same compound, the “Days of Deaths” value [1, 7] was “s, s, s, s, s”, the “tolerability of the dosage level” value [1, 8] was “tolerated” and the “maximum treatment-related body weight loss” value ([1]; low folate diet, 15 mg/kg) was 28.8%. For the same compound, the “time to recover lost body weight” value ([1]; low folate diet, 15 mg/kg) was “not recovered prior to study termination”, the “tolerability of the dosage level” value [1, 9] was “toxic” and the common clinical signs [1, 10] was “Rough pelage”. The necropsy findings [1, 10] was “Nothing significant”, the common clinical signs [1, 11] was “Rough pelage” and the necropsy findings [1, 11] was “Nothing significant”. The “Max. Mean Body Weight change during Rx (%)” value [1, 12] was −0.9%, the “Max. Mean Body Weight change during Rx (%)” value [1, 13] was −4.5% and the “Max. Mean Body Weight change during Rx (%)” value [1, 14] was −28.8%. The “Day of Max. Mean Body Weight Loss” value [1, 5] was 5, the “Day of Max. Mean Body Weight Loss” value [1, 7] was 5 and the “% Rx Related Deaths” value [1, 15] was 40%. The “Day of Max. Mean Body Weight Loss” value [1, 15] was 15, the “MTD (maximum tolerated dose)” value ([1]; mice fed a folate deficient diet, intravenously once each day for ten days, dose equivalents) was 3.75 to 15 mg/kg and the “Single dose MTD” value ([2]; dose equivalents, in mg/kg) was ~40. For the same compound, the “BWL (body weight loss)” value ([2]; tested dose (equiv) 40) was −12.6%, the “day (of body weight loss)” value ([2]; tested dose (equiv) 40) was 7 and the treatment-related deaths ([2]; tested dose (equiv) 40) was 0. For the same compound, the “BWL (body weight loss)” value ([2]; tested dose (equiv) 60) was −20.8%, the “day (of body weight loss)” value ([2]; tested dose (equiv) 60) was 9 and the treatment-related deaths ([2]; tested dose (equiv) 60) was 0. For the same compound, the “BWL (body weight loss)” value ([2]; tested dose (equiv) 90) was −21.4%, the “day (of body weight loss)” value ([2]; tested dose (equiv) 90) was 9 and the “mean day of death” value ([2]; tested dose (equiv) 90) was 12. The treatment-related deaths ([2]; tested dose (equiv) 90) was 1, the “BWL (body weight loss)” value ([2]; tested dose (equiv) 125) was −21.8% and the “day (of body weight loss)” value ([2]; tested dose (equiv) 125) was 6. The “mean day of death” value ([2]; tested dose (equiv) 125) was 7, the treatment-related deaths ([2]; tested dose (equiv) 125) was 5 and the “tumor volume compared with saline control” value [3] was “significantly less tumor volume than saline control”. For the same compound, the “tumor volume compared with the other articles tested” value [3] was “lowest tumor volumes of all articles tested”.
For `Nc1nc2[nH]cc(CCc3ccc(C(=O)N[C@@H](CCC(=O)O)C(=O)O)cc3)c2c(=O)[nH]1` [Pemetrexed, pemetrexed], the MTD at 10 days ([1]; mouse, in vivo, MTD (maximum tolerated dose), mice fed a folate deficient diet, intravenously once each day for ten days, dose equivalents) was 1 mg/kg, the MTD at 10 days ([1]; mouse, in vivo, maximum tolerated dose, mice fed a conventional diet, intravenously once each day for ten days) was < 250 mg/kg and the “maximum treatment-related body weight loss” value ([1]; low folate diet, 1 mg/kg) was 12.8%. For the same compound, the “Days of Deaths” value [1, 5] was “s, s, s, s, s”, the “tolerability of the dosage level” value [1, 6] was “tolerated” and the “Days of Deaths” value [1, 7] was “s, s, s, s, s”. The “tolerability of the dosage level” value [1, 8] was “toxic”, the “tolerability of the dosage level” value [1, 9] was “toxic” and the “tolerability of the dosage level” value ([1]; low folate diet, 60 mg/kg, tolerated if treatment-related weight loss <20%) was “toxic”. For the same compound, the “body weight nadir (Day)” value ([1]; low folate diet, across 60, 15 and 3.75 mg/kg) was 10-12, the common clinical signs [1, 10] was “rough pelage” and the necropsy findings [1, 10] was “nothing significant”. For the same compound, the common clinical signs [1, 11] was “rough pelage and diarrhea”, the necropsy findings [1, 11] was “bloated, air-filled stomachs, pale livers, and necrotic intestines” and the “Max. Mean Body Weight change during Rx (%)” value [1, 12] was −12.8%. The “Max. Mean Body Weight change during Rx (%)” value [1, 13] was −30.7%, the “Max. Mean Body Weight change during Rx (%)” value [1, 14] was −38.4% and the “Max. Mean Body Weight change during Rx (%)” value ([1]; low folate diet, intravenously once each day for ten days, 60 mg/kg/inj dose equivalents) was −38.1%. For the same compound, the “Day of Max. Mean Body Weight Loss” value [1, 5] was 12, the “% Rx Related Deaths” value ([1]; low folate diet, 1 mg/kg/inj dose equivalents, 1 mg/kg) was 0% and the “% Rx Related Deaths” value ([1]; low folate diet, 1 mg/kg/inj dose equivalents, listed as PMX, 1 mg/kg) was “no treatment-related mortality”. The “% Rx Related Deaths” value [1, 7] was 0%, the “Day of Max. Mean Body Weight Loss” value [1, 7] was 12 and the “% Rx Related Deaths” value [1, 15] was 40%. The “Day of Max. Mean Body Weight Loss” value [1, 15] was 10, the “% Rx Related Deaths” value [1, 16] was 100% and the “Day of Max. Mean Body Weight Loss” value [1, 16] was 10. For the same compound, the “tolerability of the dosage level” value ([1]; mouse, in vivo) was “toxic”, the Lethality ([1]; normal diet, 500 mg/kg) was 100% and the MTD ([2]; mouse, in vivo, dose equivalents) was 50 mg/kg. The “BWL (body weight loss)” value ([2]; tested dose (equiv) 50) was −9.7%, the “day (of body weight loss)” value ([2]; tested dose (equiv) 50) was 2 and the treatment-related deaths ([2]; tested dose (equiv) 50) was 0. The “BWL (body weight loss)” value ([2]; tested dose (equiv) 80) was −3.8%, the “day (of body weight loss)” value ([2]; tested dose (equiv) 80) was 2 and the treatment-related deaths ([2]; tested dose (equiv) 80) was 0. For the same compound, the “BWL (body weight loss)” value ([2]; tested dose (equiv) 120) was −4.1%, the “day (of body weight loss)” value ([2]; tested dose (equiv) 120) was 2 and the treatment-related deaths ([2]; tested dose (equiv) 120) was 0. The “tumor volume compared with saline control” value [3] was “significantly less tumor volume than saline control”, the “drug excreted unchanged in the urine” value [4] was 70-90% and the half-life [4] was 3.5 h.
